Test results published in patent US20260137779A1.

Columns and labels:
[1] = target: human CD3 on T (Jurkat) cells (human) (UniProt P07766); assay: flow cytometry; PerCP-anti-hCD3e (OKT3) staining of Jurkat cells; supernatant of GFP-transfected 293T cells, no competitor
[2] = target: human CD3 on T (Jurkat) cells (human) (UniProt P07766); assay: flow cytometry; PerCP-anti-hCD3e (OKT3) staining of Jurkat cells; supernatant of untransfected 293T cells (same control values as in paragraph 403)
[3] = target: human CD3 on T (Jurkat) cells (human) (UniProt P07766); assay: flow cytometry; PerCP-anti-hCD3e (OKT3) staining of Jurkat cells; supernatant of untransfected 293T cells, no competitor
[4] = target: human CD3 on T (Jurkat) cells (human) (UniProt P07766); assay: flow cytometry; PerCP-anti-hCD3e (OKT3) staining of Jurkat cells; supernatant of vector #1323, which lacks a secretion peptide (dimert not secreted)
[5] = target: human CD3 on T (Jurkat) cells (human) (UniProt P07766); assay: flow cytometry; PerCP-anti-hCD3e (OKT3) staining of Jurkat cells; media alone, no competitor (same control values as in paragraph 403)
[6] = target: human CD3 on T (Jurkat) cells (human) (UniProt P07766); assay: flow cytometry; PerCP-anti-hCD3e (OKT3) staining of Jurkat cells; media alone, no competitor
[7] = target: human CD3 on T (Jurkat) cells (human) (UniProt P07766); assay: flow cytometry; PerCP-anti-hCD3e (OKT3) staining of Jurkat cells; supernatant of vector #1104, which lacks a secretion peptide (dimert not secreted)
[8] = target: human CD3 on T (Jurkat) cells (human) (UniProt P07766); assay: flow cytometry; PerCP-anti-hCD3e (OKT3) staining of Jurkat cells; supernatant of GFP-transfected 293T cells (same control values as in paragraph 403)

% CD3 positive (Q2+Q3) [1]: 78.7%
% CD3 positive (Q2+Q3) [2]: 79.2%
% CD3 positive (Q2+Q3) [3]: 79.2%
% CD3 positive (Q2+Q3) [4]: 79.4%
% CD3 positive (Q2+Q3) [5]: 77.6%
% CD3 positive (Q2+Q3) [6]: 77.6%
% CD3 positive (Q2+Q3) [7]: 77.7%
% CD3 positive (Q2+Q3) [8]: 78.7%
Substance: PerCP-anti-hCD3e antibody (#OKT3)
